From publication doi:10.1101/2022.11.05.515292

Legend:
[1] = biological target: T1, Upstream Binding Transcription Factor (UBF), recombinant, P17480; experiment: mass photometry; conditions: remark: other sources report otherwise
T1 chain: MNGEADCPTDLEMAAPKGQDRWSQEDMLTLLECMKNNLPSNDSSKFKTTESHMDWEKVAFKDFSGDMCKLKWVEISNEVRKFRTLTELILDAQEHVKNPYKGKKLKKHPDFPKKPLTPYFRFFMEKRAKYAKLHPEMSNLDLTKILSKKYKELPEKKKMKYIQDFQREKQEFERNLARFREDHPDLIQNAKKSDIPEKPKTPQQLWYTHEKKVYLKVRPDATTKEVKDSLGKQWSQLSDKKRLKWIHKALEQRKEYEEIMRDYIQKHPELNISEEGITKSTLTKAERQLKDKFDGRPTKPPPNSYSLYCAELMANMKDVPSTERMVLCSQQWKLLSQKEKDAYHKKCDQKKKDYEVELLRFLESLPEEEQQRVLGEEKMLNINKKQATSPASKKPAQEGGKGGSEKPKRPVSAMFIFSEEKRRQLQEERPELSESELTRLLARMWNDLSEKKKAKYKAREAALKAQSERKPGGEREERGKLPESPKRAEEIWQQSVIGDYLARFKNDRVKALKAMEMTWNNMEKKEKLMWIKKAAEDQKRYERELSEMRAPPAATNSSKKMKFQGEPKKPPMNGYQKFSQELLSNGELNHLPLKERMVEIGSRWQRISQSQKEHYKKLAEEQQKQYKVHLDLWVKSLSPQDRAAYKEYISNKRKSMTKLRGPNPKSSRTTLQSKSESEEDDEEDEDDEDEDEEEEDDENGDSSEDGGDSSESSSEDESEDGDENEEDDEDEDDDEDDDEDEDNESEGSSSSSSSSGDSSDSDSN

[2] = biological target: T1, Upstream Binding Transcription Factor …; experiment: SDS-PAGE without sample heating, with densitometry; conditions: remark: other sources report otherwise

stoichiometry N [1]: 4
stoichiometry N [2]: 4
B1: Upstream Binding Transcription Factor (UBF), recombinant, P17480 1-764 (natural protein)
chain: T1 chain
